Experimental data taken from patent US20070077617.

Molecular target: fusion protein PRV
Sequence (chain, as listed by the source): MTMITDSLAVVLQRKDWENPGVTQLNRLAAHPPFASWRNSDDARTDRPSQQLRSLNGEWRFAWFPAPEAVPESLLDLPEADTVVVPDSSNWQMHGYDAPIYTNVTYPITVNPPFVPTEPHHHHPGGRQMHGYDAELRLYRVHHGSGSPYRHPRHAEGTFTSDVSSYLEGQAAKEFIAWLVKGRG

B1: OmpT protease variant OmpT D97V (protein)
chain: STETLSFTPDNINADISLGTLSGKTKERVYLAEEGGRKVSQLDWKFNNAAIIKGAINWDLMPQISIGAAGWTTLGSRGGNMVDQDWMDSSNPGTWTVESRHPDTQLNYANEFDLNIKGWLLNEPNYRLGLMAGYQESRYSFTARGGSYIYSSEEGFRDDIGSFPNGERAIGYKQRFKMPYIGLTGSYRYEDFELGGTFKYSGWVESSDNDEHYDPGKRITYRSKVKDQNYYSVAVNAGYYVTPNAKVYVEGAWNRVTNKKGNTSLYDHNNNTSDYSKNGAGIENYNFITTAGLKYTF
Q: Which relative cleavage efficiency does the source give for B1 here?
A: less than 3.0%

B2: OmpT protease variant OmpT D97A (protein)
chain: STETLSFTPDNINADISLGTLSGKTKERVYLAEEGGRKVSQLDWKFNNAAIIKGAINWDLMPQISIGAAGWTTLGSRGGNMVDQDWMDSSNPGTWTAESRHPDTQLNYANEFDLNIKGWLLNEPNYRLGLMAGYQESRYSFTARGGSYIYSSEEGFRDDIGSFPNGERAIGYKQRFKMPYIGLTGSYRYEDFELGGTFKYSGWVESSDNDEHYDPGKRITYRSKVKDQNYYSVAVNAGYYVTPNAKVYVEGAWNRVTNKKGNTSLYDHNNNTSDYSKNGAGIENYNFITTAGLKYTF
Q: B2 was tested. Which relative cleavage efficiency did it give?
A: < 3%

B3: OmpT protease variant OmpT D97L (protein)
chain: STETLSFTPDNINADISLGTLSGKTKERVYLAEEGGRKVSQLDWKFNNAAIIKGAINWDLMPQISIGAAGWTTLGSRGGNMVDQDWMDSSNPGTWTLESRHPDTQLNYANEFDLNIKGWLLNEPNYRLGLMAGYQESRYSFTARGGSYIYSSEEGFRDDIGSFPNGERAIGYKQRFKMPYIGLTGSYRYEDFELGGTFKYSGWVESSDNDEHYDPGKRITYRSKVKDQNYYSVAVNAGYYVTPNAKVYVEGAWNRVTNKKGNTSLYDHNNNTSDYSKNGAGIENYNFITTAGLKYTF
Q: B3 was tested. Which relative cleavage efficiency did it give?
A: < 3%

B4: OmpT protease variant OmpT D97I (protein)
chain: STETLSFTPDNINADISLGTLSGKTKERVYLAEEGGRKVSQLDWKFNNAAIIKGAINWDLMPQISIGAAGWTTLGSRGGNMVDQDWMDSSNPGTWTIESRHPDTQLNYANEFDLNIKGWLLNEPNYRLGLMAGYQESRYSFTARGGSYIYSSEEGFRDDIGSFPNGERAIGYKQRFKMPYIGLTGSYRYEDFELGGTFKYSGWVESSDNDEHYDPGKRITYRSKVKDQNYYSVAVNAGYYVTPNAKVYVEGAWNRVTNKKGNTSLYDHNNNTSDYSKNGAGIENYNFITTAGLKYTF
Q: With B4 as the protein, how does the relative cleavage efficiency read?
A: less than 3.0%

B5: OmpT protease variant OmpT D97F (protein)
chain: STETLSFTPDNINADISLGTLSGKTKERVYLAEEGGRKVSQLDWKFNNAAIIKGAINWDLMPQISIGAAGWTTLGSRGGNMVDQDWMDSSNPGTWTFESRHPDTQLNYANEFDLNIKGWLLNEPNYRLGLMAGYQESRYSFTARGGSYIYSSEEGFRDDIGSFPNGERAIGYKQRFKMPYIGLTGSYRYEDFELGGTFKYSGWVESSDNDEHYDPGKRITYRSKVKDQNYYSVAVNAGYYVTPNAKVYVEGAWNRVTNKKGNTSLYDHNNNTSDYSKNGAGIENYNFITTAGLKYTF
Q: Which relative cleavage efficiency does the source give for B5 here?
A: < 3%

B6: OmpT protease variant OmpT D97M (protein)
chain: STETLSFTPDNINADISLGTLSGKTKERVYLAEEGGRKVSQLDWKFNNAAIIKGAINWDLMPQISIGAAGWTTLGSRGGNMVDQDWMDSSNPGTWTMESRHPDTQLNYANEFDLNIKGWLLNEPNYRLGLMAGYQESRYSFTARGGSYIYSSEEGFRDDIGSFPNGERAIGYKQRFKMPYIGLTGSYRYEDFELGGTFKYSGWVESSDNDEHYDPGKRITYRSKVKDQNYYSVAVNAGYYVTPNAKVYVEGAWNRVTNKKGNTSLYDHNNNTSDYSKNGAGIENYNFITTAGLKYTF
Q: For B6, which relative cleavage efficiency is on record?
A: 3%

B7: OmpT protease variant OmpT D97P (protein)
chain: STETLSFTPDNINADISLGTLSGKTKERVYLAEEGGRKVSQLDWKFNNAAIIKGAINWDLMPQISIGAAGWTTLGSRGGNMVDQDWMDSSNPGTWTPESRHPDTQLNYANEFDLNIKGWLLNEPNYRLGLMAGYQESRYSFTARGGSYIYSSEEGFRDDIGSFPNGERAIGYKQRFKMPYIGLTGSYRYEDFELGGTFKYSGWVESSDNDEHYDPGKRITYRSKVKDQNYYSVAVNAGYYVTPNAKVYVEGAWNRVTNKKGNTSLYDHNNNTSDYSKNGAGIENYNFITTAGLKYTF
Q: Which relative cleavage efficiency does the source give for B7 here?
A: less than 3.0%

B8: OmpT protease variant OmpT D97S (protein)
chain: STETLSFTPDNINADISLGTLSGKTKERVYLAEEGGRKVSQLDWKFNNAAIIKGAINWDLMPQISIGAAGWTTLGSRGGNMVDQDWMDSSNPGTWTSESRHPDTQLNYANEFDLNIKGWLLNEPNYRLGLMAGYQESRYSFTARGGSYIYSSEEGFRDDIGSFPNGERAIGYKQRFKMPYIGLTGSYRYEDFELGGTFKYSGWVESSDNDEHYDPGKRITYRSKVKDQNYYSVAVNAGYYVTPNAKVYVEGAWNRVTNKKGNTSLYDHNNNTSDYSKNGAGIENYNFITTAGLKYTF
Q: Which relative cleavage efficiency does the source give for B8 here?
A: < 3%

B9: OmpT protease variant OmpT D97T (protein)
chain: STETLSFTPDNINADISLGTLSGKTKERVYLAEEGGRKVSQLDWKFNNAAIIKGAINWDLMPQISIGAAGWTTLGSRGGNMVDQDWMDSSNPGTWTTESRHPDTQLNYANEFDLNIKGWLLNEPNYRLGLMAGYQESRYSFTARGGSYIYSSEEGFRDDIGSFPNGERAIGYKQRFKMPYIGLTGSYRYEDFELGGTFKYSGWVESSDNDEHYDPGKRITYRSKVKDQNYYSVAVNAGYYVTPNAKVYVEGAWNRVTNKKGNTSLYDHNNNTSDYSKNGAGIENYNFITTAGLKYTF
Q: With B9 as the protein, how does the relative cleavage efficiency read?
A: < 3%

B10: OmpT protease variant OmpT D97W (protein)
chain: STETLSFTPDNINADISLGTLSGKTKERVYLAEEGGRKVSQLDWKFNNAAIIKGAINWDLMPQISIGAAGWTTLGSRGGNMVDQDWMDSSNPGTWTWESRHPDTQLNYANEFDLNIKGWLLNEPNYRLGLMAGYQESRYSFTARGGSYIYSSEEGFRDDIGSFPNGERAIGYKQRFKMPYIGLTGSYRYEDFELGGTFKYSGWVESSDNDEHYDPGKRITYRSKVKDQNYYSVAVNAGYYVTPNAKVYVEGAWNRVTNKKGNTSLYDHNNNTSDYSKNGAGIENYNFITTAGLKYTF
Q: With B10 as the protein, how does the relative cleavage efficiency read?
A: less than 3.0%

B11: OmpT protease variant OmpT D97C (protein)
chain: STETLSFTPDNINADISLGTLSGKTKERVYLAEEGGRKVSQLDWKFNNAAIIKGAINWDLMPQISIGAAGWTTLGSRGGNMVDQDWMDSSNPGTWTCESRHPDTQLNYANEFDLNIKGWLLNEPNYRLGLMAGYQESRYSFTARGGSYIYSSEEGFRDDIGSFPNGERAIGYKQRFKMPYIGLTGSYRYEDFELGGTFKYSGWVESSDNDEHYDPGKRITYRSKVKDQNYYSVAVNAGYYVTPNAKVYVEGAWNRVTNKKGNTSLYDHNNNTSDYSKNGAGIENYNFITTAGLKYTF
Q: For B11, which relative cleavage efficiency is on record?
A: 3.2%

B12: OmpT protease variant OmpT D97N (protein)
chain: STETLSFTPDNINADISLGTLSGKTKERVYLAEEGGRKVSQLDWKFNNAAIIKGAINWDLMPQISIGAAGWTTLGSRGGNMVDQDWMDSSNPGTWTNESRHPDTQLNYANEFDLNIKGWLLNEPNYRLGLMAGYQESRYSFTARGGSYIYSSEEGFRDDIGSFPNGERAIGYKQRFKMPYIGLTGSYRYEDFELGGTFKYSGWVESSDNDEHYDPGKRITYRSKVKDQNYYSVAVNAGYYVTPNAKVYVEGAWNRVTNKKGNTSLYDHNNNTSDYSKNGAGIENYNFITTAGLKYTF
Q: Which relative cleavage efficiency does the source give for B12 here?
A: < 3%

B13: OmpT protease variant OmpT D97G (protein)
chain: STETLSFTPDNINADISLGTLSGKTKERVYLAEEGGRKVSQLDWKFNNAAIIKGAINWDLMPQISIGAAGWTTLGSRGGNMVDQDWMDSSNPGTWTGESRHPDTQLNYANEFDLNIKGWLLNEPNYRLGLMAGYQESRYSFTARGGSYIYSSEEGFRDDIGSFPNGERAIGYKQRFKMPYIGLTGSYRYEDFELGGTFKYSGWVESSDNDEHYDPGKRITYRSKVKDQNYYSVAVNAGYYVTPNAKVYVEGAWNRVTNKKGNTSLYDHNNNTSDYSKNGAGIENYNFITTAGLKYTF
Q: How did the relative cleavage efficiency turn out when B13 was run?
A: less than 3.0%

B14: OmpT protease variant OmpT D97Q (protein)
chain: STETLSFTPDNINADISLGTLSGKTKERVYLAEEGGRKVSQLDWKFNNAAIIKGAINWDLMPQISIGAAGWTTLGSRGGNMVDQDWMDSSNPGTWTQESRHPDTQLNYANEFDLNIKGWLLNEPNYRLGLMAGYQESRYSFTARGGSYIYSSEEGFRDDIGSFPNGERAIGYKQRFKMPYIGLTGSYRYEDFELGGTFKYSGWVESSDNDEHYDPGKRITYRSKVKDQNYYSVAVNAGYYVTPNAKVYVEGAWNRVTNKKGNTSLYDHNNNTSDYSKNGAGIENYNFITTAGLKYTF
Q: How did the relative cleavage efficiency turn out when B14 was run?
A: < 3%

B15: OmpT protease variant OmpT D97E (protein)
chain: STETLSFTPDNINADISLGTLSGKTKERVYLAEEGGRKVSQLDWKFNNAAIIKGAINWDLMPQISIGAAGWTTLGSRGGNMVDQDWMDSSNPGTWTEESRHPDTQLNYANEFDLNIKGWLLNEPNYRLGLMAGYQESRYSFTARGGSYIYSSEEGFRDDIGSFPNGERAIGYKQRFKMPYIGLTGSYRYEDFELGGTFKYSGWVESSDNDEHYDPGKRITYRSKVKDQNYYSVAVNAGYYVTPNAKVYVEGAWNRVTNKKGNTSLYDHNNNTSDYSKNGAGIENYNFITTAGLKYTF
Q: With B15 as the protein, how does the relative cleavage efficiency read?
A: 5%

B16: OmpT protease variant OmpT D97Y (protein)
chain: STETLSFTPDNINADISLGTLSGKTKERVYLAEEGGRKVSQLDWKFNNAAIIKGAINWDLMPQISIGAAGWTTLGSRGGNMVDQDWMDSSNPGTWTYESRHPDTQLNYANEFDLNIKGWLLNEPNYRLGLMAGYQESRYSFTARGGSYIYSSEEGFRDDIGSFPNGERAIGYKQRFKMPYIGLTGSYRYEDFELGGTFKYSGWVESSDNDEHYDPGKRITYRSKVKDQNYYSVAVNAGYYVTPNAKVYVEGAWNRVTNKKGNTSLYDHNNNTSDYSKNGAGIENYNFITTAGLKYTF
Q: For B16, which relative cleavage efficiency is on record?
A: less than 3.0%

B17: OmpT protease variant OmpT D97H (protein)
chain: STETLSFTPDNINADISLGTLSGKTKERVYLAEEGGRKVSQLDWKFNNAAIIKGAINWDLMPQISIGAAGWTTLGSRGGNMVDQDWMDSSNPGTWTHESRHPDTQLNYANEFDLNIKGWLLNEPNYRLGLMAGYQESRYSFTARGGSYIYSSEEGFRDDIGSFPNGERAIGYKQRFKMPYIGLTGSYRYEDFELGGTFKYSGWVESSDNDEHYDPGKRITYRSKVKDQNYYSVAVNAGYYVTPNAKVYVEGAWNRVTNKKGNTSLYDHNNNTSDYSKNGAGIENYNFITTAGLKYTF
Q: B17 was tested. Which relative cleavage efficiency did it give?
A: 7.8%

B18: OmpT protease variant OmpT D97K (protein)
chain: STETLSFTPDNINADISLGTLSGKTKERVYLAEEGGRKVSQLDWKFNNAAIIKGAINWDLMPQISIGAAGWTTLGSRGGNMVDQDWMDSSNPGTWTKESRHPDTQLNYANEFDLNIKGWLLNEPNYRLGLMAGYQESRYSFTARGGSYIYSSEEGFRDDIGSFPNGERAIGYKQRFKMPYIGLTGSYRYEDFELGGTFKYSGWVESSDNDEHYDPGKRITYRSKVKDQNYYSVAVNAGYYVTPNAKVYVEGAWNRVTNKKGNTSLYDHNNNTSDYSKNGAGIENYNFITTAGLKYTF
Q: How did the relative cleavage efficiency turn out when B18 was run?
A: less than 3.0%
